# Numbering of substitutions follows the chain as printed. Where “and” joins values, the source holds several entries; their conditions need not be identical. Equal entries are not always repeated.
# B1: 12A2H4-3a-12A2H4 (protein)
# chain: EVQLVESGGGLVQPGGSLRLSCAASGRTFSYNPMGWFRQAPGKGRELVAAISRTGGSTYYPDSVEGRFTISRDNAKRSVYLQMNSLRAEDTAVYYCAAAGVRAEDGRVRTLPSEYTFWGQGTQVTVSSAAAEVQLVESGGGLVQPGGSLRLSCAASGRTFSYNPMGWFRQAPGKGRELVAAISRTGGSTYYPDSVEGRFTISRDNAKRSVYLQMNSLRAEDTAVYYCAAAGVRAEDGRVRTLPSEYTFWGQGTQVTVSS
# B2: 12B6H2-3a-12B6H2 (protein)
# VHH: B1 chain with L47V, P61A, D62R, S78M, T116N, L178V, P192A, D193R, S209M, T247N
# B3: 14F8: anti-vWF nanobody, SEQ ID NO: 66 (protein)
# VHH: AVQLVESGGGLVQAGESLRLSCTSSGRAFSYYNTGWFRQAPGKEREFVAAISWSGGLTYYADSVKGRFTISRDNAKDMVYLQMASLKPEDTAVYYCAANRRQKTVQMGERAYDYWGQGTQVTVSS
# B4: 12B6-3a-12B6 (protein)
# VHH: QVQLVESGGGLVQAGGALRLSCAASGRTFSYNPMGWFRQAPGKERDVVAAISRTGGSTYYARSVEGRFTISRDNAKRMVYLQMNALKPEDTAVYYCAAAGVRAEDGRVRTLPSEYNFWGQGTQVTVSSAAAEVQLVESGGGLVQAGGALRLSCAASGRTFSYNPMGWFRQAPGKERDVVAAISRTGGSTYYARSVEGRFTISRDNAKRMVYLQMNALKPEDTAVYYCAAAGVRAEDGRVRTLPSEYNFWGQGTQVTVSS
# B5: 12B1: anti-vWF nanobody, SEQ ID NO: 61 (protein)
# VHH: QVQLVESGGGLVQAGGSLRLSCAASGRTFSNYGMGWFRQAPGKEREFVTSISWSGTYTAYSDNVKGRFTISRDNAKNTVYLQMDSLKPEDTAVYYCAAQSRYRSNYYDHDDKYAYWGQGTQVTVSS
# B6: 12E3: anti-vWF nanobody, SEQ ID NO: 64 (protein)
# VHH: B5 VHH with Q1E, S30N, T56S, S61A, E89G, R103S
# B7: 12A2-3a-12A2 (protein)
# VHH: QVKLEESGGGLVQAGGALRLSCAASGRTFSYNPMGWFRQAPGKERDLVAAISRTGGSTYYPDSVEGRFTISRDNAKRMVYLQMNNLKPEDTAVYYCAAAGVRAEDGRVRTLPSEYTFWGQGTQVTVSSAAAEVQLVESGGGLVQAGGALRLSCAASGRTFSYNPMGWFRQAPGKERDLVAAISRTGGSTYYPDSVEGRFTISRDNAKRMVYLQMNNLKPEDTAVYYCAAAGVRAEDGRVRTLPSEYTFWGQGTQVTVSS
# B8: 12A2H4: humanised 12A2 nanobody, SEQ ID NO: 92 (protein)
# VHH: EVQLVESGGGLVQPGGSLRLSCAASGRTFSYNPMGWFRQAPGKGRELVAAISRTGGSTYYPDSVEGRFTISRDNAKRSVYLQMNSLRAEDTAVYYCAAAGVRAEDGRVRTLPSEYTFWGQGTQVTVSS
# B9: 12A2H1: humanised 12A2 nanobody, SEQ ID NO: 90 (protein)
# VHH: B8 VHH with S78M
# B10: 12C9: anti-vWF nanobody, SEQ ID NO: 65 (protein)
# VHH: AVQLVESGGGLVQPGGSLKLSCATSGSIFSSSAMAWYRQASGKQRELVATITSGGRTSYADSVKGRFTISRDNAKNTVYLQMNSLKPEDTAVYDCNFVVDGKRAPWGQGTQVTVSS
# B11: 12A2-GS9-12A2 (protein)
# VHH: QVKLEESGGGLVQAGGALRLSCAASGRTFSYNPMGWFRQAPGKERDLVAAISRTGGSTYYPDSVEGRFTISRDNAKRMVYLQMNNLKPEDTAVYYCAAAGVRAEDGRVRTLPSEYTFWGQGTQVTVSSGGGGSGGGSEVQLVESGGGLVQAGGALRLSCAASGRTFSYNPMGWFRQAPGKERDLVAAISRTGGSTYYPDSVEGRFTISRDNAKRMVYLQMNNLKPEDTAVYYCAAAGVRAEDGRVRTLPSEYTFWGQGTQVTVSS
# B12: 12A5: anti-vWF nanobody, SEQ ID NO: 60 (protein)
# VHH: AVQLVESGGGLVQPGGSLRLSCLASGRIFSIGAMGMYRQAPGKQRELVATITSGGSTNYADPVKGRFTISRDGPKNTVYLQMNSLKPEDTAVYYCYANLKQGSYGYRFNDYWGQGTQVTVSS
# B13: 12D11: anti-vWF nanobody, SEQ ID NO: 63 (protein)
# VHH: AVQLVDSGGGLVQAGGSLRLSCTASERTTFSSYTLGWFRQAPGKEREFVGGISWSGVSTDYAEFAKGRFTISRDHAANTVYLEMNSLKPEDTAVYYCAALGRYRSNWRNIGQYDYWGQGTQVTVSS
# Legend:
# [1] = test system: cyclic flow reductions (CFRs) in injured, stenosed femoral artery; assay: Folts thrombosis model in baboons: length/inhibition of cyclic flow reductions (CFRs); assay type: in vivo, baboon (Papio ursinus)
# Description: The study protocol that was applied is the original Folts model and some modifications described below (Folts J D, et al, Circulation. 1976; 54:365-370). Healthy male or female baboons (Papio ursinus) were used. The animals were 8-17 kg of weight and were disease-free for at least 2 weeks prior to use. The baboons were fed with dry standard food only. The baboons were used at different time points. […] Animals were anaesthetized and body temperature is maintained at 37° C. with a heating table. A segment of a femoral artery was dissected free from surrounding tissue. A shunt was placed between the femoral vein and femoral artery to obtain high shear rates. The mean and phasic blood flow was recorded continuously throughout the experiment. Baseline flow was recorded for 20 minutes. […] A clamp was placed over the injured site to create an external stenosis. A gradual decline in blood flow due to platelet adhesion and aggregation was observed. When flow was reduced to zero, blood flow was restored by opening the clamp to dislodge the platelet-rich thrombus. This repetitive pattern of decreasing blood flow following mechanical restoration is referred to as cyclic flow reductions (CFRs). Additional endothelial injury was repeated if needed to finally obtain stable CFRs in these baboons. The number of times the thrombus needed to be dislodged determines the number of CFRs. FIG. 24 illustrates blood flow pattern during the Folts model in baboons. […] This procedure was repeated for several times with escalating doses of the test substance. The anti-thrombotic effect was quantified by comparing the length of CFRs before and after drug administration. When full inhibition of CFRs was observed, a new injury was applied in order to confirm that the inhibition was an effect of the treatment but not of a natural healing phenomenon.
# [2] = test system: platelet adhesion to collagen type III; assay: Inhibition of platelet adhesion by nanobodies in a flow (perfusion) chamber; assay type: cell-based, human; details: for % Platelet adhesion at 2 μg/ml: human blood, collagen type III, wall shear rate 1600 s^−1
# Description: The protein samples were analysed in a perfusion chamber. Thermanox coverslips (Nunc) were soaked overnight in 80% ethanol, rinsed thoroughly with distilled water and air-dried. Human placental collagen type III (Sigma) was solubilized in 0.05 mol/l acetic acid and sprayed on the coverslips at a final density of 30 μg/cm^2 with a retouching airbrush. After spraying the coverslips were blocked with 1% human albumin solution in PBS for at least 1 hour at RT. Perfusions were performed with a single-pass perfusion chamber under non-pulsatile flow conditions using a modified small perfusion chamber with a slit height of 0.1 mm and a slit width of 2 mm. Blood was obtained by venipuncture from healthy volunteers and anti-coagulated with Penta/PPACK. Triplicate coverslips were inserted into the chamber. […] After a perfusion run, the coverslip was taken from the chamber, rinsed in Hepes buffered saline (10 mM Hepes, 150 mM NaCL, ph 7.4), fixed in 0.5% glutaraldehyde in PBS, dehydrated in methanol and stained with May-Grünwald and Giemsa (Riedel de Haën). Platelet deposition was evaluated as platelet surface coverage using light microscopy and computer-assisted analysis.
# [3] = number of experiments with inhibition / total number of independent repeats
molecule,measurement,setting,value
CC(=O)Oc1ccccc1C(=O)O [Aspegic],Length of CFRs,"[1]; Aspegic final dose 1 mg/kg, individual baboons 3, 4, 5, 1 mg/kg",149 s and 164 s and 135 s
same,Length of CFRs,"[1]; Aspegic final dose 2.5 mg/kg, individual baboons 3, 4, 5, 2.5 mg/kg",102 s and 325 s and 115 s
same,Length of CFRs,"[1]; Aspegic final dose 5 mg/kg, individual baboons 3, 4, 5, 5 mg/kg",102 s and 1800 s and 245 s
same,Length of CFRs,"[1]; Aspegic final dose 10 mg/kg, individual baboons 3, 4, 5, 10 mg/kg",113 s and 905 s and 156 s
same,Length of CFRs,"[1]; Aspegic final dose 20 mg/kg, individual baboons 3, 4, 5, 20 mg/kg",125 s and 657 s and 169 s
same,Length of CFRs,"[1]; Aspegic final dose 40 mg/kg, individual baboons 3, 5, 40 mg/kg",110 s and 145 s
same,Length of CFRs,"[1]; Aspegic final dose 80 mg/kg, baboon 3",129 s
same,Length of CFRs,"[1]; Aspegic-treated, after Epinephrin, baboon 4",161 s
same,Inhibition of CFRs,"[1]; baboon 3 and 5, doses as high as 80 and 40 mg/kg respectively",no inhibition of CFRs could be obtained
same,dose at which full inhibition of CFRs was obtained,[1]; baboon 4,5 mg/kg
same,mean length of the CFRs versus before administration,"[1]; baboon 4, higher doses and upon new injury, CFRs returned",3-4 times
same,Inhibition of CFRs,[1]; [3],0/3
same,Inhibition of CFRs after administration of Epinephrin,[1]; [3],0/1
same,Inhibition of CFRs after new injury,[1]; [3],0/3
B1,% Platelet adhesion,"[2]; 0.3 μg/ml nanobody, Table 41",10 ± 6%
same,% Platelet adhesion,"[2]; 0.6 μg/ml nanobody, Table 41",8 ± 4%
B2,% Platelet adhesion,"[2]; 0.3 μg/ml nanobody, Table 41",30 ± 16%
same,% Platelet adhesion,"[2]; 0.6 μg/ml nanobody, Table 41",17 ± 6%
B3,% Platelet adhesion at 2 μg/ml,[2]; 2 μg/ml nanobody,51 ± 10%
B4,% Platelet adhesion,"[2]; 0.3 μg/ml nanobody, Table 41",15 ± 6%
same,% Platelet adhesion,"[2]; 0.6 μg/ml nanobody, Table 41",8 ± 6%
B5,% Platelet adhesion at 2 μg/ml,[2]; 2 μg/ml nanobody,56 ± 3%
B6,% Platelet adhesion at 2 μg/ml,[2]; 2 μg/ml nanobody,54 ± 1%
B7,% Platelet adhesion,"[2]; 0.1 μg/ml nanobody, Table 23",74 ± 5%
same,% Platelet adhesion,"[2]; 0.2 μg/ml nanobody, Table 23",50 ± 3%
same,% Platelet adhesion,"[2]; 0.3 μg/ml nanobody, Table 41",10 ± 8%
same,% Platelet adhesion,"[2]; 0.4 μg/ml nanobody, Table 23",33 ± 0%
same,% Platelet adhesion,"[2]; 0.6 μg/ml nanobody, Table 41",4 ± 3%
B8,% Platelet adhesion,"[2]; 0.5 μg/ml nanobody, Table 32",61 ± 1%
same,% Platelet adhesion,"[2]; 0.7 μg/ml nanobody, Table 31",55 ± 1%
same,% Platelet adhesion,"[2]; 1 μg/ml nanobody, Table 32",57 ± 1%
same,% Platelet adhesion,"[2]; 2 μg/ml nanobody, Table 32",46 ± 5%
B9,% Platelet adhesion,"[2]; 0.5 μg/ml nanobody, Table 32",40 ± 9%
same,% Platelet adhesion,"[2]; 0.7 μg/ml nanobody, Table 31",49 ± 1%
same,% Platelet adhesion,"[2]; 1 μg/ml nanobody, Table 32",43 ± 3%
same,% Platelet adhesion,"[2]; 2 μg/ml nanobody, Table 32",38 ± 5%
B10,% Platelet adhesion at 2 μg/ml,[2]; 2 μg/ml nanobody,68 ± 8%
B11,% Platelet adhesion,"[2]; 0.1 μg/ml nanobody, Table 23",81 ± 1%
same,% Platelet adhesion,"[2]; 0.2 μg/ml nanobody, Table 23",73 ± 1%
same,% Platelet adhesion,"[2]; 0.4 μg/ml nanobody, Table 23",40 ± 2%
B12,% Platelet adhesion,"[2]; 0.2 μg/ml nanobody, Table 15",50 ± 7%
same,% Platelet adhesion,"[2]; 0.4 μg/ml nanobody, Table 15",27 ± 10%
same,% Platelet adhesion,"[2]; 0.6 μg/ml nanobody, Table 15",2 ± 2%
same,% Platelet adhesion at 2 μg/ml,[2]; 2 μg/ml nanobody,10 ± 3%
same,inhibition of platelet adhesion to collagen type III,[2]; perfusion chamber at high shear rate,clearly inhibit platelet adhesion
same,concentration with full inhibition of platelet adhesion,"[2]; tested at 0.2, 0.4 and 0.6 μg/ml, same donor",0.6 µg/mL
B13,% Platelet adhesion at 2 μg/ml,[2]; 2 μg/ml nanobody,61 ± 7%
